The results in this text go back to patent US20140294898A1 (published 2014).

The target in assay [1] is T1, hPDL1(19-239)-TVMV-His (human, UniProt Q9NZQ7 19-239).
T1 construct: The text says amino acids 18-239, the construct name says 19-239; The entry includes the TVMV site and the His tag; also called PD-L1-His; PD-L1-TVMV-His
The experiment in a line: HTRF competition of PD-1-Ig binding to PD-L1-His. In general terms: Time-resolved FRET reads energy transfer from a long-lived donor to a nearby acceptor.
T1 sequence (Q9NZQ7 other isoform, or with tags, fused parts or gaps limits assumed): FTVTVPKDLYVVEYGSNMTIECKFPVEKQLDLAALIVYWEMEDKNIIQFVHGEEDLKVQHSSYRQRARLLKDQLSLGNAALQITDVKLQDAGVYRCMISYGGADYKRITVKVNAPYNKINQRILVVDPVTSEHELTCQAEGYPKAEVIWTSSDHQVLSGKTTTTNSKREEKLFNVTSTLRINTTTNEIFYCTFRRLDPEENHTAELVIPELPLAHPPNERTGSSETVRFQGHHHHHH

For assay [2], the target named is T2, human PD-L1 on cells (human, UniProt Q9NZQ7 19-290).
T2 construct: whole, on cells; The same entry serves as PD-L1 on PBMC in the CMV recall assay; also called hPD-L1; LK35.2-hPD-L1
T2 sequence (Q9NZQ7 19-290): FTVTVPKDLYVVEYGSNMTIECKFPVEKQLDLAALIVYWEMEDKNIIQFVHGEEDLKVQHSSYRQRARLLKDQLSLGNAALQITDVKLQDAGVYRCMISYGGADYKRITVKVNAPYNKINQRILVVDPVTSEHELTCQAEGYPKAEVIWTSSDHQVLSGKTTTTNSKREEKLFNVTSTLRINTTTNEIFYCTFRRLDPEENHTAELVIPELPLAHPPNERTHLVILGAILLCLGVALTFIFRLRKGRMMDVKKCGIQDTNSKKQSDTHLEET
The experiment in a line: cell binding assay (CBA): PE-labelled PD-1-Ig on cells over-expressing human PD-L1.

Assay [3] deals with T2, human PD-L1 on cells. The experiment in a line: cell-based or functional assay.
Assay [4] has as its target T3, hPDL1(19-239)-TVMV-His (human, UniProt Q9NZQ7 19-239).
T3 construct: The text says amino acids 18-239, the construct name says 19-239; also called PD-L1-His; PD-L1-TVMV-His
The experiment in a line: HTRF competition, PD-1-Ig binding to PD-L1-His.
T3 sequence (Q9NZQ7 other isoform, or with tags, fused parts or gaps limits assumed): as the sequence (Q9NZQ7 other isoform, or with tags, fused parts or gaps limits assumed) above

Assay [5] has as its target T4, human PD-L1 expressed on cells (human, UniProt Q9NZQ7 19-290).
T4 construct: whole, on cells; In the CMV recall assay PD-L1 is the endogenous protein on donor PBMC; also called hPD-L1; LK35.2-hPD-L1
The experiment in a line: cell binding assay, PE-labeled PD-1-Ig on cells over-expressing human PD-L1, high-content imaging.

Assay [6] has as its target T5, hPDL1(19-239)-TVMV-His (human, UniProt Q9NZQ7 19-239).
T5 construct: The text says amino acids 18-239, the construct name says 19-239; also called PD-L1-His; PD-L1-TVMV-His
The experiment in a line: HTRF competition, inhibitor titrated against PD-1-Ig binding to PD-L1-His. How it is done: (§1) All binding studies were performed in an HTRF assay buffer consisting of dPBS supplemented with 0.1% (w/v) bovine serum albumin and 0.05% (v/v) Tween-20. […] PD-L1 fusion proteins from either human, cynomologous macaques, or mouse were used. HTRF detection was achieved using europium crypate-labeled anti-Ig monoclonal antibody (1 nM final) and allophycocyanin (APC) labeled anti-His monoclonal antibody (20 nM final). Antibodies were diluted in HTRF detection buffer and 5 μl was dispensed on top of binding reaction. The reaction was allowed to equilibrate for 30 minutes and signal (665 nm/620 nm ratio) was obtained using an EnVision fluorometer. […]
HTRF Experiments were performed essentially as outlined supra. Variant macrocyclic peptides were created as outlined herein.
T5 sequence (Q9NZQ7 other isoform, or with tags, fused parts or gaps limits assumed): as above

For assay [7], the target named is T5, hPDL1(19-239)-TVMV-His. Described as above. How it is done:
as §1
The source holds these as a separate data set.

Starred links: 1 amine or outer side, 2 acyl side, 3 side chain; linkers in the order of their positions; H or OH if unused. Positions of bridges follow the written chain, without caps; N, C: chain ends. Non-standard residues stand in square brackets, D forms with d. trans‑Pro(4-(4-fluorobenzyl)) = trans-4-(4-fluorobenzyl)-L-proline, O=C([C@@H]1C[C@@H](Cc2ccc(F)cc2)CN1[*:1])[*:2]; Pro(cis-4-Ph) = O=C(O)[C@@H]1C[C@H](c2ccccc2)CN1; NMeNle = CCCC[C@H](NC)C(=O)O; NMeA = CN[C@@H](C)C(=O)O; Dab = NCC[C@H](N)C(=O)O

T4 sequence (Q9NZQ7 19-290): as the sequence (Q9NZQ7 19-290) above

B1: Example 13011 (peptide)
peptide: {CH2CO}-Y[NMeA]NPHE[trans‑Pro(4-(4-fluorobenzyl))]W[Dab]W[NMeNle][NMeNle][Dab]CG-NH2
modifications: thioether N-14
SMILES: CCCC[C@H]1C(=O)N(C)[C@@H](CCCC)C(=O)N[C@@H](CCN)C(=O)N[C@H](C(=O)NCC(N)=O)CSCC(=O)N[C@@H](Cc2ccc(O)cc2)C(=O)N(C)[C@@H](C)C(=O)N[C@@H](CC(N)=O)C(=O)N2CCC[C@H]2C(=O)N[C@@H](Cc2c[nH]cn2)C(=O)N[C@@H](CCC(=O)O)C(=O)N2C[C@H](Cc3ccc(F)cc3)C[C@H]2C(=O)N[C@@H](Cc2c[nH]c3ccccc23)C(=O)N[C@@H](CCN)C(=O)N[C@@H](Cc2c[nH]c3ccccc23)C(=O)N1C
notes: X marks Dab and Nle
In the case of B1, the IC50 was 9.87 nM with hPDL1(19-239)-TVMV-His [1] and 2.69 nM with human PD-L1 on cells [2]. The “CMV Recall EC50; IFNγ secretion by CMV-specific T cells” value with human PD-L1 on cells [3] worked out at 38.4 nM.

B2: Example 3526 (peptide)
peptide: FFXGDVFYGYYLCG
HELM: PEPTIDE1{[O=C(C[*:3])[*:2]].F.[meF].[CCCC[C@@H](C(=O)[*:2])N(C)[*:1]].[Sar].D.V.[meF].Y.[Sar].Y.Y.L.C.G.[am]}$PEPTIDE1,PEPTIDE1,1:R3-14:R3$$$V2.0
SMILES: CCCC[C@H]1C(=O)N(C)CC(=O)N[C@@H](CC(=O)O)C(=O)N[C@@H](C(C)C)C(=O)N(C)[C@@H](Cc2ccccc2)C(=O)N[C@@H](Cc2ccc(O)cc2)C(=O)N(C)CC(=O)N[C@@H](Cc2ccc(O)cc2)C(=O)N[C@@H](Cc2ccc(O)cc2)C(=O)N[C@@H](CC(C)C)C(=O)N[C@H](C(=O)NCC(N)=O)CSCC(=O)N[C@@H](Cc2ccccc2)C(=O)N(C)[C@@H](Cc2ccccc2)C(=O)N1C
notes: ClAc-Phe-[N-Me]Phe-[N-Me]Nle-Sar-Asp-Val-[N-Me]Phe-Tyr-Sar-Tyr-Tyr-Leu-Cys-Gly-NH2, cyclised
For B2, the IC50 turned out to be 132 nM with hPDL1(19-239)-TVMV-His [4] and 629 nM in assay [5].

B3: Example 13006 (peptide)
peptide: {CH2CO}-Y[NMeA]DPHK[Pro(cis-4-Ph)]WKW[NMeNle][NMeNle]ECG-NH2
modifications: thioether N-14
SMILES: CCCC[C@H]1C(=O)N(C)[C@@H](CCCC)C(=O)N[C@@H](CCC(=O)O)C(=O)N[C@H](C(=O)NCC(N)=O)CSCC(=O)N[C@@H](Cc2ccc(O)cc2)C(=O)N(C)[C@@H](C)C(=O)N[C@@H](CC(=O)O)C(=O)N2CCC[C@H]2C(=O)N[C@@H](Cc2c[nH]cn2)C(=O)N[C@@H](CCCCN)C(=O)N2C[C@@H](c3ccccc3)C[C@H]2C(=O)N[C@@H](Cc2c[nH]c3ccccc23)C(=O)N[C@@H](CCCCN)C(=O)N[C@@H](Cc2c[nH]c3ccccc23)C(=O)N1C
notes: X marks Nle
Consider B3, for which the IC50 turned out to be 4.11 nM with hPDL1(19-239)-TVMV-His [1] and 1.47 nM with human PD-L1 on cells [2]. Further, the “CMV Recall EC50; IFNγ secretion by CMV-specific T cells” value in the assay with human PD-L1 on cells [3] was determined as 27.2 nM.

B4: Compound No. 99 (peptide)
peptide: {CH2CO}-FLIVIRDRVFRCG-NH2
modifications: thioether N-12
notes: Macrocyclic peptide; parent of the Formula III series
Turning to B4, the IC50 with hPDL1(19-239)-TVMV-His [6] and with hPDL1(19-239)-TVMV-His [7] was 153 nM each time.

B5: Compound No. 111 (peptide)
peptide: FLIVIRDRFFRCG
HELM: PEPTIDE1{[O=C(C[*:3])[*:2]].F.L.I.V.I.R.D.R.F.F.R.C.G.[am]}$PEPTIDE1,PEPTIDE1,1:R3-13:R3$$$V2.0
SMILES: CC[C@H](C)[C@@H]1NC(=O)[C@H](CC(C)C)NC(=O)[C@H](Cc2ccccc2)NC(=O)CSC[C@@H](C(=O)NCC(N)=O)NC(=O)[C@H](CCCNC(=N)N)NC(=O)[C@H](Cc2ccccc2)NC(=O)[C@H](Cc2ccccc2)NC(=O)[C@H](CCCNC(=N)N)NC(=O)[C@H](CC(=O)O)NC(=O)[C@H](CCCNC(=N)N)NC(=O)[C@H]([C@@H](C)CC)NC(=O)[C@H](C(C)C)NC1=O
notes: Macrocyclic variant of Compound No. 99
For the molecule B5, in the assay with hPDL1(19-239)-TVMV-His [6], the IC50 came to 540 nM.

A word on the IC50: it is the concentration needed to halve the response being measured. A high value points to weaker potency.
